How the values were obtained:
[1] = supernatant titer on PFVL luciferase indicator cells; conditions: glycan lost; control: wild type
[2] = non-reducing Western blot; conditions: glycan lost; control: wild type

B1: human tetherin (HuTHN; BST-2, CD317, HM1.24): N65/92A (protein)
parent chain: MASTSYDYCRVPMEDGDKRCKLLLGIGILVLLIIVILGVPLIIFTIKANSEACRDGLRAVMECRNVTHLLQQELTEAQKGFQDVEAQAATCNHTVMALMASLDAEKAQGQKKVEELEGEITTLNHKLQDASAEVERLRRENQVLSVRIADKKYYPSSQDSSSAAAPQLLIVLLGLSALLQ
other: inhibition of virus release [1]: no change
oligomerisation [2]: no change
